Numbering of substitutions follows the chain as printed. Names and notes keep the numbering of the source.
B1: H183/L072 VL S26P (antibody, name in Kabat numbering, V domains shown)
VH: QVQLVESGGGLVQPGRSLRLSCAASGFTFSNAWMHWVRQAPGKGLEWVAQIKDKGNAYAAYYAPSVKGRFTISRDDSKNSIYLQMNSLKTEDTAVYYCHYVHYASASTVLPAFGVDAWGQGTTVTVSS
VL: DIVMTQSPLSLPVTPGEPASISCQAPQELVHMNRNTYLHWYQQKPGQAPRLLIYKVSNRFPGVPDRFSGSGSGTDFTLKISRVEAEDVGVYYCAQGTSVPFTFGQGTKLEIK
B2: H183/L072 VL T31A (antibody, name in Kabat numbering, V domains shown)
VH: B1 VH
VL: B1 VL with P26S, T36A
B3: H183/L072 VL S26W (antibody, name in Kabat numbering, V domains shown)
VH: B1 VH
VL: B1 VL with P26W
B4: H183/L072 VL S52E (antibody, name in Kabat numbering, V domains shown)
VH: B1 VH
VL: B1 VL with P26S, S57E
B5: H183/L072 VL S93T (antibody, name in Kabat numbering, V domains shown)
VH: B1 VH
VL: B1 VL with P26S, S98T
B6: H183/L072 VL S93R (antibody, name in Kabat numbering, V domains shown)
VH: B1 VH
VL: B1 VL with P26S, S98R
B7: H183/L072 VL T31D (antibody, name in Kabat numbering, V domains shown)
VH: B1 VH
VL: B1 VL with P26S, T36D
B8: H183/L072 VL S93Q (antibody, name in Kabat numbering, V domains shown)
VH: B1 VH
VL: B1 VL with P26S, S98Q
B9: H183/L072 VL S93M (antibody, name in Kabat numbering, V domains shown)
VH: B1 VH
VL: B1 VL with P26S, S98M
B10: H183/L072 VL S52W (antibody, name in Kabat numbering, V domains shown)
VH: B1 VH
VL: B1 VL with P26S, S57W
B11: H183/L072 VL S26Q (antibody, name in Kabat numbering, V domains shown)
VH: B1 VH
VL: B1 VL with P26Q
B12: H183/L072 VL S93E (antibody, name in Kabat numbering, V domains shown)
VH: B1 VH
VL: B1 VL with P26S, S98E
B13: H183/L072 VL S52R (antibody, name in Kabat numbering, V domains shown)
VH: B1 VH
VL: B1 VL with P26S, S57R
B14: H183/L072 VL S93L (antibody, name in Kabat numbering, V domains shown)
VH: B1 VH
VL: B1 VL with P26S, S98L
B15: H183/L072 VL S93W (antibody, name in Kabat numbering, V domains shown)
VH: B1 VH
VL: B1 VL with P26S, S98W
B16: H183/L072 VL S26V (antibody, name in Kabat numbering, V domains shown)
VH: B1 VH
VL: B1 VL with P26V
B17: H183/L072 VL S52T (antibody, name in Kabat numbering, V domains shown)
VH: B1 VH
VL: B1 VL with P26S, S57T
B18: H183/L072 VL S52Q (antibody, name in Kabat numbering, V domains shown)
VH: B1 VH
VL: B1 VL with P26S, S57Q
B19: H183/L072 VL S93V (antibody, name in Kabat numbering, V domains shown)
VH: B1 VH
VL: B1 VL with P26S, S98V
B20: H183/L072 VL S93I (antibody, name in Kabat numbering, V domains shown)
VH: B1 VH
VL: B1 VL with P26S, S98I
B21: H183/L072 VL S93H (antibody, name in Kabat numbering, V domains shown)
VH: B1 VH
VL: B1 VL with P26S, S98H
B22: H183/L072 VL S93K (antibody, name in Kabat numbering, V domains shown)
VH: B1 VH
VL: B1 VL with P26S, S98K
B23: H183/L072 VL S52I (antibody, name in Kabat numbering, V domains shown)
VH: B1 VH
VL: B1 VL with P26S, S57I
B24: H183/L072 VL S93D (antibody, name in Kabat numbering, V domains shown)
VH: B1 VH
VL: B1 VL with P26S, S98D
B25: H183/L072 VL S52K (antibody, name in Kabat numbering, V domains shown)
VH: B1 VH
VL: B1 VL with P26S, S57K
B26: H183/L072 VL S93A (antibody, name in Kabat numbering, V domains shown)
VH: B1 VH
VL: B1 VL with P26S, S98A
B27: H183/L072 VL S52H (antibody, name in Kabat numbering, V domains shown)
VH: B1 VH
VL: B1 VL with P26S, S57H
B28: H183/L072 VL S52D (antibody, name in Kabat numbering, V domains shown)
VH: B1 VH
VL: B1 VL with P26S, S57D
B29: H183/L072 VL S52N (antibody, name in Kabat numbering, V domains shown)
VH: B1 VH
VL: B1 VL with P26S, S57N
B30: H183/L072 VL S52A (antibody, name in Kabat numbering, V domains shown)
VH: B1 VH
VL: B1 VL with P26S, S57A
B31: H183/L072 VL S52V (antibody, name in Kabat numbering, V domains shown)
VH: B1 VH
VL: B1 VL with P26S, S57V
B32: H183/L072 VL S52F (antibody, name in Kabat numbering, V domains shown)
VH: B1 VH
VL: B1 VL with P26S, S57F
B33: H183/L072 VL S26Y (antibody, name in Kabat numbering, V domains shown)
VH: B1 VH
VL: B1 VL with P26Y
B34: H183/L072 VL S52G (antibody, name in Kabat numbering, V domains shown)
VH: B1 VH
VL: B1 VL with P26S, S57G
B35: H183/L072 VL S26T (antibody, name in Kabat numbering, V domains shown)
VH: B1 VH
VL: B1 VL with P26T
B36: H183/L072 VL S93F (antibody, name in Kabat numbering, V domains shown)
VH: B1 VH
VL: B1 VL with P26S, S98F
B37: H183/L072 VL S26R (antibody, name in Kabat numbering, V domains shown)
VH: B1 VH
VL: B1 VL with P26R
B38: H183/L072 VL S52M (antibody, name in Kabat numbering, V domains shown)
VH: B1 VH
VL: B1 VL with P26S, S57M
B39: H183/L072 VL T31E (antibody, name in Kabat numbering, V domains shown)
VH: B1 VH
VL: B1 VL with P26S, T36E
B40: H183/L072 VL S93N (antibody, name in Kabat numbering, V domains shown)
VH: B1 VH
VL: B1 VL with P26S, S98N
B41: H183/L072 VL S93G (antibody, name in Kabat numbering, V domains shown)
VH: B1 VH
VL: B1 VL with P26S, S98G
B42: H183/L072 VL S52L (antibody, name in Kabat numbering, V domains shown)
VH: B1 VH
VL: B1 VL with P26S, S57L

Target: T1, Human CD3eg linker (human)
T1 construct: Single-chain construct; also called recombinant human CD3
T1 chain: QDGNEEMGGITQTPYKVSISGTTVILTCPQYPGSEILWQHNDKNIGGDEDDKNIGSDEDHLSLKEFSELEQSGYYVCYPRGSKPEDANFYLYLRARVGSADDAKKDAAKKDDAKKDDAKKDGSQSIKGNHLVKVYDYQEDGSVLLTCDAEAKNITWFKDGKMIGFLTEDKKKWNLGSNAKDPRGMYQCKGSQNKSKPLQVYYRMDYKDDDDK
Assay: SPR; fold vs parent H183/L072

B1 and B2 are the same in “fold change of affinity” value: 0.2 fold for the first, 0.2 fold for the second.

First: B3
Second: B4
The “fold change of affinity” value of the first is lower: 0.3 fold for the first, 1 fold for the second.

B5 and B6 are the same in “fold change of affinity” value: 1 fold for the first, 1 fold for the second.

Compared with B7, B8 is higher in “fold change of affinity” value: 0 fold for the first, 1 fold for the second.

Compared with B9, B10 is higher in “fold change of affinity” value: 1 fold for the first, 1.4 fold for the second.

Compared with B11, B12 is higher in “fold change of affinity” value: 0.8 fold for the first, 1 fold for the second.

First: B13
Second: B14
The “fold change of affinity” value of the first is higher: 1.8 fold for the first, 0.9 fold for the second.

Compared with B15, B16 is lower in “fold change of affinity” value: 1.1 fold for the first, 0.6 fold for the second.

First: B17
Second: B18
The “fold change of affinity” value of the first is lower: 1.3 fold for the first, 1.4 fold for the second.

First: B19
Second: B20
The “fold change of affinity” value of the first is lower: 0.7 fold for the first, 0.8 fold for the second.

Going from B21 to B22, the “fold change of affinity” value rises from 0.9 fold to 1 fold.

Compared with B23, B24 is lower in “fold change of affinity” value: 1.5 fold for the first, 0.7 fold for the second.

First: B25
Second: B26
The “fold change of affinity” value of the first is higher: 1.9 fold for the first, 1.1 fold for the second.

First: B27
Second: B28
The “fold change of affinity” value of the first is higher: 1.7 fold for the first, 1 fold for the second.

First: B29
Second: B30
The “fold change of affinity” value of the first is higher: 1.5 fold for the first, 1.2 fold for the second.

B31 and B32 are the same in “fold change of affinity” value: 1.6 fold for the first, 1.6 fold for the second.

Going from B33 to B34, the “fold change of affinity” value rises from 0.4 fold to 1.4 fold.

Compared with B35, B36 is lower in “fold change of affinity” value: 1.4 fold for the first, 1 fold for the second.

First: B37
Second: B38
The “fold change of affinity” value of the first is lower: 0.5 fold for the first, 1.4 fold for the second.

Compared with B39, B40 is higher in “fold change of affinity” value: 0.4 fold for the first, 0.8 fold for the second.

First: B41
Second: B42
The “fold change of affinity” value of the first is lower: 0.8 fold for the first, 1.6 fold for the second.
